Reference: a protein production outcome set (Wang et al. 2014)

Experiment: label from the status in PepcDB records

Sequence | protein production
MDKIIIQGARENNLKNIFLEIPKNQFVVFTGLSGSGKSTLAFDTLYAEGQRRYLESLSSYARQFLDKVGKPNVDKIEGLTPAIAIDQKTTSKNPRSTVGTITEIYDYLRLLFARVGEQFCPTCLEPISSMSTSDIISQICHLEENSKIIILAPIIKDKKGSFNDKLESLRLKGYVRAFVDGVMVRLDEEIHLHKTKKHTIEAVVDRVVVNNENASRIASAIEKALKESYGELEVEILQDNAPSIRKHYSEHKACFKCKMSFEELEPLSFSFNSPKGACESCLGLGTKFSLDISKILDPNTPLNQGAIKVIFGYNRSYYAQMFEGFCEYNGIDSALCFNELNKEQQDALLYGNGTEISFHFKNSPLKRPWKGIIQIAYDMFKEQKDLSDYMSEKTCSSCEGHRLKASSLSVQVAGLKMADFLTKPIEEVYHFFNDPTHFSYLNEQEKKIAEPILKEILERVFFLYDVGLGYLTLGRDARTISGGESQRIRIASQIGSGLTGVLYVLDEPSIGLHEKDTLKLINTLRNLQKKGNTLIVVEHDKETIKHADFVVDIGPKAGRHGGEVVFSGSVKELLQNNHSTALYLNGTKKIERPKFELPKEKHFLEIKNVNINNIKNLSVQIPLKQLVCITGVSGSGKSSLILQTLLPTAQTLLNHAKKTQSLNGVEIVGLEHLDKVIYLDQAPIGKTPRSNPATYTGVMDEIRILFAEQKEAKILGYSASRFSFNVKGGRCEKCQGDGDIKIEMHFLPDVLVQCDSCKGAKYNPQTLEIKVKGKSIADVLNMSVEEAYEFFAKFPKIAVKLKTLMDVGLGYITLGQNATTLSGGEAQRIKLAKELSKKDTGKTLYILDEPTTGLHFEDVNHLLQVLHSLVALGNSMLVIEHNLDIIKNADYIIDMGPDGGDKGGKVIASGTPLEVAQNCEKTQSYTGKFLALELK | failed
MYMDHFPTFGGYIFSMATYYSLIPLTLLIALRAKWDYIMRHYWRSVARGFIIAILIALPVTSILQFKLTGDYLYVYSLTKTGVCITSSCLISRMKENEYYKFNVTGLQKYGIPNLGIMQAYRLVDKKFNKLKWRYDVVNAVVIIRSLFPLPITEVWSYEVDPKESHKIIGLRKFYVYYPYNPGTLLSRAYDFEFTMFLWGSGGGVA | failed
MSSLNIKQGSDAHFPDYPLASPSNNEIDLLNLISVLWRAKKTVMAVVFAFACAGLLISFILPQKWTSAAVVTPPEPVQWQELEKTFTKLRVLDLDIKIDRTEAFNLFIKKFQSVSLLEEYLRSSPYVMDQLKEAKIDELDLHRAIVALSEKMKAVDDNASKKKDEPSLYTSWTLSFTAPTSEEAQTVLSGYIDYISALVVKESIENVRNKLEIKTQFEKEKLAQDRIKMKNQLDANIQRLNYSLDIANAAGIKKPVYSNGQAVKDDPDFSISLGADGIERKLEIEKAVTDVAELNGELRNRQYLVEQLTKANINDVNFTPFKYQLSPSLPVKKDGPGKAIIVILSALIGGMVACGSVLLRYAMASRKQDAMMADHLV | not failed
MSDDLMHEPDAAQAILPPGFLKNPVHLLAFGFGSGAAPRAPGTWGSLAAIPLWYAFSWLPPAAYWLVVLAAFLVGIWLCGKTAADLKVHDHGGIVWDEFVGMWIALGLFPDQLYGVLMAFMLFRLFDVWKPWPINWLDERLPGGLGIMVDDVVAGAMALGCLWAIDVWVMPYIV | failed
MSLSNKIFTHSLPMRYADFPTLVDALDYAALSSAGMNFYDRRCQLEDQLEYQTLKARAEAGAKRLLSLNLKKGDRVALIAETSSEFVEAFFACQYAGLVAVPLAIPMGVGQRDSWSAKLQGLLASCQPAAIITGDEWLPLVNAATHDNPELHVLSHAWFKALPEADVALQRPVPNDIAYLQYTSGSTRFPRGVIITHREVMANLRAISHDGIKLRPGDRCVSWLPFYHDMGLVGFLLTPVATQLSVDYLRTQDFAMRPLQWLKLISKNRGTVSVAPPFGYELCQRRVNEKDLAELDLSCWRVAGIGAEPISAEQLHQFAECFRQVNFDNKTFMPCYGLAENALAVSFSDEASGVVVNEVDRDILEYQGKAVAPGAETRAVSTFVNCGKALPEHGIEIRNEAGMPVAERVVGHICISGPSLMSGYFGDQVSQDEIAATGWLDTGDLGYLLDGYLYVTGRIKDLIIIRGRNIWPQDIEYIAEQEPEIHSGDAIAFVTAQEKIILQIQCRISDEERRGQLIHALAARIQSEFGVTAAIDLLPPHSIPRTSSGKPARAEAKKRYQKAYAASLNVQESLAEGHHHHHH | not failed
MDSEKALELVKHGATLLFLDVPQYTLVGIDTQIFAVGPAFKGIKMIPPGIHFVFYSSSTRDGREFSPTIGFFVDVAPSQVIVRKWNQQDEWLTKVSEEEEERYSQAVRSLEFDKNLGPYNLKQYGEWRHLSNYITKDVVEKFEPVGGEITVTYESAILKGGPKTAMEIALDTQMKKSKFTTSSTEQPKGNRFYYTSIPRIIKHKGMSGQELTSMNLDKTQLLESVLSKEYKDSEDLLLGELQFSFVAFLMGQSLESFMQWKSIVSLLLGCTSAPFQTRSQLFTKFIKVIYHQLKYGLQKENSGPETGIHALLDDSWLASDSFLHFLCKDFFALVEETSVVDGDLLSWTRKFKELLENRLGWEFQKKSAVDGIYFEEDDEYAPVVEMLDESHGEYMDKTT | failed
IKNFLYAWCGKRKMTPAYEIRAVGNKNRQKFMCEVRVEGFNYAGMGNSTNKKDAQSNAARDFVNYLVRINEVKSEEVPAVGIVPPP | not failed
MTAGGTMTLKITFLGSGSSFAIGPENYQSNVLLELENDTLLIDAGTDIKYSLRDQGLSYKDIKNIYISHLHYDHCGGLEWFALITYFDPNLSHKPCLIASDKIINELWDKSLSGGLSTLPHERANLSAFFDVKAVKQYEGFVWRSIKFKLVQTVHYYSEYELMPSFGLIFSYNKSRILFTSDTQSCPVQLISFYEESDIIFHDCETTESKSGVHAHYSELVKLPSHLKKKMWLYHYNPGKLPNAKKDGFLGFVAKGQSFVF | failed
MTEQDIYKLLADGERVTLECKKAQNGVPNSLWETYSAFANTNGGILLLGVYENVAEKDSLMRFTITGVEDADKIRKDLWNTINSREKVNVNLLHDEDVQTISVNGKEVIAINVPRADYNLRPVYINNNLMRGTYRRNHEGDYHCTEQMIKMMVRDAYEDGNDRMFLEYYTMDDIDIPTLEGYRVMFKTNNPEHIWNSLDHKEFLMQLGGYVVNRKDGTEGLTIAGLLMFGKGLPVRERFDYLRMDYIDKSNLIGDQRYSDRLTYDGTWENNLFNFIRMVVPRLTRDIPRPFQMDGIIRKDDTPQHKAVREAFTNMIIHADLMLNGLLRVEKYDDRFVLSNPGLLKLPVEQIYAGGESKARNQRMQHMLRMIGYGENLGSGFPLILSAWNEKHWLKPELVEQPELMQVKLILHIENRVYVTKDVTKDVTKELTERQQIILEFMQADGTITISEMSQKTNVTERTIKRDIESLTEKGILSREGGRKEGRWVIRKILEHHHHHH | not failed
EPEQVIRKYTEELKVAPEEDCIICMEKLAVASGYSDMTDSKALGPMVVGRLTKCSHAFHLLCLLAMYCNGNKDGSLQCPSCKTIYGEKTGTQPWGKMEVFR | not failed
TVDWASMKWARPYLNTNSLGANPKQPGDVAKVGDLVRLLRQDDGSLKFSQIPVAQSALVSLDPQNGAIRALVGGFAFEQSNYNRAMQAKRQPGSSFKPFIYSAALDNGYTASSLVNDAPIVFVDEYLDKVWRPKNDTNTFLGPIRLREALYKSRNLVSIRLLQALGVDSTIDYITRFGFAKQDLPRNLSLALGTATLTPMEIATGWATFANGGYKVSPYLIQTIENRDGQTLFVANPPSVPVNDVNTAPNTSTFAVHDSPSVVASPPGSPAQPQAPAVAERIVDGRTTYILNSMLQDVIKRGTGRRALSMNRPDIAGKTGTTNDSKDAWFSGYNADYVTTVWSGFDQPESLGRHEFGGTVSLPIWMDYMSAALKDKPPHQQ | failed
MTRQLLIVPIVKLKNLLTGRWLRYAFLSVAGNALIWGTSIQYLKVTKPTYTSEFALILSGASFGVNVNLPGIGQATSSSSSAIGSSTYDARANYEYIFTSEAVLKKAAAIAKIPEEQFSKPRIKLLDNSTIMQFEVTGKSPKEAQNKSLALYQAMVHQITVLRTGEINQRKDPTQKTLLSSQQKLERAQKHLSEYKLRSGLSFPDQIGNLSSNIEQLRRQRAEAKAQENATNQKLQQLAKNIGLSPQEAADAFLLRVDQIFQQNLKDYSEATTTLEILMTKYGPNHPQVVKERIRQEAALAALLERSQILLEKPMTTTILNRLALAVNGSGRDTLFQNLVTYQSDQKGLQSQVKTLDSEIQRLEKRLEILSQRQSKLENLKRDVQIAEAMFASTLTKLDLGQGDIFAAYPLVQMLVEPNLPDQPTAPKKSFILAGSAAGSIFSTLGLCLVWIRKPWIEKLSKWLS | failed
VVKVALFVRLEAKPGKEKEVESFLMGGLPIVNEEPATTAWFGIRLGPSTFGIFDAFPNEAGRQAHLSGKVAAALMAKAGELFSEPPSIEKVDILAAKLPG | failed
MDGTVTPSPITTAMPPVSALDAGTPTLPPEAPLAMPEQNLREGSLQVRHQRTSPPGIGVRRFYLIGGTFATTAIAVWVMLSVLWPDGISVLEGCLLGLFVLLFAWIAMSFASAVAGFVTVVARAGRKLGIDPEQPLPTLRSRTALLMPTYNEDPRRLLAGLQAIYESVAETGQLEHFDFFVLSDTTREHIGRAEELVYNALCDRVGGHGRIFYRRRADNAARKAGNVADWVRRFGGSYPQMLILDADSVMTGDTIVRLVAGMENNPDVGLIQTLPAVVNGQTLFARMQQFGGRVYGPIIAFGVAWWHGAESNYWGHNAIIRTQAFADHAGLPSLRGRKPFGGHVLSHDFVEAALMRRGGWAMHMVPYLQGSYEEGPPTLTDLLIRDRRWCQGNLQHAKVVGAKGLHWISRMHMLIGIGHYFTAPMWGLLMLIGIGIPLAGGDIDLAGDLPFSPARYWHGSSQGNAIWIFVCTMFVLLAPKLLGYIALLLNPRELRACGGAFRAAVSILLETVLAALMAPVVMYLQSRGVFEVLAGKDSGWDAQVRDDGKLSWPALLRSYGGLTVFGLFMGAVAYAVSPALAAWMGPVIVGMALSIPVVALTSLRRTGMALRRAGIFCIPEELDPPKVLVRASELRRAAALEPSLI | failed
MARFDRYLLSQLVALFGFFSLVLVLVYWINRAVGLFDDLISDGQSALVFLEFSLLALPNVIRLVLPLSAFAATIYVVNRLSQESELVVMQATGFSAFRLARPVIWFGLIVALMMIVLMNLLVPASRATLSARSAEISQNATARFLRDGEFLHPADGVTLYIREVTETGELRDLLLVDDRDPARSTAYTARRALLVRTDTTPKLLMIDGSAQTLTREGRRLELTRFDDVTYDLGAFMTGSGPKRRVLEELPTMTLLAPTAEVLEETRSTRAAALYEGHSRIGQPFLGFASSLIGFAALLLGSFSRFGLWWQILFAVLLLIVVQTINVAASGVGVTDEQLWPLAYAAPVTGFAIGILLLWIGQRPRRLRRALNGIFAS | failed
MIPLSPDTLLAARLLAEGDLAGALRAAQAGLQAEPGNAPLWNLLGVCAARLGQAALAEQCWRQALSLDPATPDAHYNLGCLASERDDAAAADAHYRAELARDPDHCSSLGNLGNLLQDAGRLDEAETCFRRRLAIQPGAAAHYQLGRLLAERGRNGEAEAQLRACLDETPDDVEALQLLGRLLEERGEAGEAEAMLRRALESAPGHAAAGNNLGLLLMAQRRWDEAESPLRAAHAAQPGAALPNLASLLLATGRAAEAETLARQALAAEPGRADWLNLLGLALREQGRDEEAGLAWEQGLASVPDHRRLRQNLGYLQLARGDWAAGWAHHEARLESAVYPALPSPRWQGESLAGRRLLVLFEQGYGDAIQFSRYLNPLLEQGAARVVALCREPLSPLFSRQWPQVAWLAMGSGYPAAFPPHDCHVFSMSLPWALRDFEPRAETYLQADPALRQAWRARLPPGRNIGLVWRRPAPSTRSTIAVPCRGRRLCCRCWPIPAPTGFRCSRSRPMSNANGCSNMAWRSGVPNWGISPTARRCWRNWTAWWPWTPRWRTWRARWACLAGCCWPASMWTGAGDGMAKRRRGTTRFVCSAKGAARDGARRSPGCERRNAQRSRLPGCISRSRSDGCLMLRIRK | failed
MDERRFFRDVCAEWMEQYRLTVRESTLEKTQRIINIHVLPAFGDMVINNITPNVCQKVVNKWFLEAKSYKKWLNYASMIFDYALRAEYVGRNPCTLVTMPRVQEQAGEKLEHHHHHH | failed
